The nature of data set [1]: amyloid nucleation score (Sup35N fusion, yeast selection) (log enrichment); library NNK1; higher = more nucleation; inactive = no reads after selection. The gist of the method: (§1)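 Using DiMSum, nucleation scores were taken as the log enrichment of output over input reads, centred on the mode score of non-aggregating sequences. The input and output reads came from Illumina sequencing of plasmid inserts, with sequences under 100 input reads excluded. The yeast were psi-negative, expressed Sup35N fused to peptides of 20 random codons, were induced with 100 μM copper sulfate for 24 hours, and were grown 7 days at 30°C on medium lacking adenine and uracil.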

The nature of data set [2]: amyloid nucleation score (Sup35N fusion, yeast selection) (log enrichment); library NNK2; higher = more nucleation; inactive = no reads after selection. The gist of the method: as §1

± gives the uncertainty stated by the source.

As for GNFHQPFFLMVVFQHARAPL, in data set [1], the amyloid nucleation score was determined as 6.291 ± 0.054. The same measure, in the same setting: for GPPRN the value was 0.681 ± 0.65; for VSNTSLYPDKESMLRGTEWE, 0.674 ± 0.77; for QGSPARMCVL, 0.629 ± 1. Still for that read-out and setting: for ATGARLKLCQELRSTLGMLT the value was -0.608 ± 0.45; for LWLLHGFDWWKCIYLPGRFL, 0.307 ± 0.97; for RCVAPAV, 0.151 ± 0.56. On the same count and under the same terms, for ACHRTWKWVLRLRLLMRNNL the value was -0.712 ± 0.8; for PNDPGKLSHGVSVVLYFDEL, 1.5 ± 0.39; for TDGQWMSYSFSAFASYVVLG, -0.179 ± 0.58. In data set [1], KLLHLVIVDELCFVRYSGLA registered an amyloid nucleation score of 0.381 ± 0.81.

Substance INIVVMGMAGRRQGVPVACV returned an amyloid nucleation score in data set [1] of 1.59 ± 0.72.

In data set [1], TYDQTRMTVHRSSSIERART had an amyloid nucleation score of 0.173 ± 1.4. As to HGAVLCC, the amyloid nucleation score in data set [1] is 0.305 ± 1.4. The same measure, in the same setting: for NVANVV the value was -0.013 ± 1.2; for FNDLYLGAYSRREDTNYVRL, 0.198 ± 0.56. On to YWGTS, for which the amyloid nucleation score in data set [1] was 0.971 ± 0.49. In data set [1], SLDYKFSFLSQ had an amyloid nucleation score of 6.963 ± 0.045. MFSYDFGMCGFYN showed an amyloid nucleation score in data set [1] of 0.971 ± 0.29. In data set [1], RVKEPFRTYSRTALMC showed an amyloid nucleation score of 0.306 ± 0.41. In turn, EDSLFRSVLILMSVMFIQVD yielded an amyloid nucleation score in data set [1] of 1.05 ± 0.38. The substance SFSTKPTCRPPILHSLERVT displayed an amyloid nucleation score in data set [1] of 3.62 ± 0.064.

In the case of FNLNNGIR, the amyloid nucleation score result in data set [1] is “inactive”. On the same count and under the same terms, for RYVNRT the value was -0.497 ± 1.2; for WRDTDCGLIN, “inactive”.

Substance RVVMLCLVCLFGVRGS registered an amyloid nucleation score in data set [1] of 0.827 ± 0.52. Still for that read-out and setting: for ADSHYSDVGGYWMNSSLCK the value was 1.31 ± 0.8; for AALSC, 0.844 ± 0.46.

As for VIYSSIHKLSDGDRVENPRS, in data set [1], the amyloid nucleation score is -0.933 ± 0.96. Still for that read-out and setting: for SSYFTKM the value was 0.548 ± 0.34; for LLYVLSTLIMYTSTMYIYQV, 0.662 ± 0.51; for INNTLNI, 0.793 ± 0.47. The same measure, in the same setting: for DLNCFAFVWVIIYTRDGWTI the value was -0.353 ± 0.3. Take TLVIVTFFMIFIGMVSVFYR: the amyloid nucleation score in data set [1] turned out to be 1.27 ± 0.25.

The substance WEVVMWRYCAPRTGVLPQKP displayed an amyloid nucleation score in data set [1] of -0.535 ± 1.2. As to VSRWYVILNML, in data set [1], the amyloid nucleation score was 4.03 ± 0.11.

YECKVYKSK: the amyloid nucleation score in data set [1] was 0.466 ± 0.47. On the same count and under the same terms, for FSAKYMQGTQWSRLVHMLRT the value was 0.112 ± 0.48; for SSLVVWNTQSSTLMTLLSYS, -0.915 ± 0.49. The substance FVGQRKLLLKEEAQGFLQCK registered an amyloid nucleation score in data set [1] of -0.707 ± 1.2. Still for that read-out and setting: for WTLCMPKCGWRQSFSLRSRR the value was -0.294 ± 0.47. In turn, PVAVVGILHPVFDRRPMRTV gave an amyloid nucleation score in data set [1] of -0.031 ± 0.89.

In the case of TSVSKLQHWIYFTFY, in data set [1], the amyloid nucleation score was -0.834 ± 1.4.

TNFFGSPCAMCNFSLDICSK yielded an amyloid nucleation score in data set [1] of 8.038 ± 0.057.

NFRLEYDLCVGLTSSHIGGL: in data set [1], the amyloid nucleation score is -0.219 ± 0.48. On the same count and under the same terms, for SRVISLPVLKI the value was -0.302 ± 0.9; for VYTKYICWGCVNAQRFDHGT, 8.269 ± 0.049. For the substance DRRRVVNINARQSVNIRFRM, the amyloid nucleation score in data set [1] turned out to be 8.53 ± 0.044. Substance DGSLKVELQR showed an amyloid nucleation score in data set [1] of 1.14 ± 0.49. Still for that read-out and setting: for VLTEGYLFTSLIDL the value was -0.22 ± 0.43; for LEQCYAAHSTYKMMPWAYKA, 0.091 ± 0.33; for RGHLKLVTNYISMSRVSYFS, 2.07 ± 0.16. As to KWTGRGSYNDRLFVRRRMF, in data set [1], the amyloid nucleation score is -0.073 ± 0.47. On the same count and under the same terms, for QHHSRRMNLGC the value was -0.407 ± 0.32. On the same count and under the same terms, for CLRDNSRRGRNVQSL the value was -1 ± 1.5; for MMCGNLY, 0.625 ± 0.7. NRLIGGLFSCVCTADQSTHS had an amyloid nucleation score in data set [1] of 8.419 ± 0.047. Substance WWYQCHCSYYHAIGITSVQE yielded an amyloid nucleation score in data set [1] of 1.39 ± 0.63. On the same count and under the same terms, for WCCHAGAMFAMAKSL the value was 0.468 ± 0.62. For the substance VFLSGINH, the amyloid nucleation score in data set [2] is -1.18 ± 1.1. Substance VVRHLWMTKYCRFMFISTVY returned an amyloid nucleation score in data set [2] of -0.898 ± 0.34. Same read-out and setting: for DCSSVISKSSLIAVLCFHTN the value was 5.14 ± 0.058. Same read-out and setting: for HKLFHLDSVQVYKQYGKEAI the value was 1.16 ± 0.18; for SMEAFYRGFFKTPWSY, -0.2 ± 0.29; for CASNQCTGP, 3.28 ± 0.065.

VGVVGYVETSLLGLRRCG registered an amyloid nucleation score in data set [2] of -0.976 ± 0.54. The same measure, in the same setting: for GIMSFG the value was 1.66 ± 0.43. GLGMGDFCILVKLKANVSRC gave an amyloid nucleation score in data set [2] of -0.266 ± 1. Turning to HCVLYCNMALFLQRSHRASC, the amyloid nucleation score in data set [2] is 8.484 ± 0.039. In data set [2], NFASFCPFFS came in with an amyloid nucleation score of 0.053 ± 0.39. The same measure, in the same setting: for SWVSFDKSLHMGVVYDRLRR the value was “inactive”; for MGVDLPIASLCSNCGEAGLG, 0.199 ± 0.43; for VDITRWIDVMVYF, -0.19 ± 0.62. Still for that read-out and setting: for VFWHMSIIHIVCRIILSKDW the value was “inactive”; for LLRDSVY, -0.817 ± 1.1.

For LSYNQD, the amyloid nucleation score in data set [2] was -0.581 ± 0.64. Regarding TVMLFIVHLPCDRTFYL, the amyloid nucleation score in data set [2] turned out to be 0.682 ± 0.45. Consider NPLAIVAS, for which, in data set [2], the amyloid nucleation score is -1.77 ± 0.78. In the case of IMYCCVMLIFTMSVVEWGFT, the amyloid nucleation score in data set [2] is -0.383 ± 1.

As for NDRILPYSNLWHWERLV, the amyloid nucleation score in data set [2] is -0.567 ± 1.1. On the same count and under the same terms, for TELKEGLYAGIHFNTGTG the value was -0.457 ± 0.64; for HINFRSVITVV, -0.81 ± 0.44; for NLWSSGKWLMCI, -0.292 ± 0.29. In turn, YLLALRCLFLLYRVYWFSIE showed an amyloid nucleation score in data set [2] of -0.129 ± 0.39.

In data set [2], SILLLIKVYFWGLCNPMILA gave an amyloid nucleation score of -1.65 ± 1.

Take NSSMTRLGNTYLYHNNLHLV: the amyloid nucleation score in data set [2] was -1.25 ± 0.76. Same read-out and setting: for YVGSFVGSGIVLLNNSAVRH the value was 3.4 ± 0.14; for QGLFLLSCPSSN, 2.54 ± 0.11.

RTSHSLRWMVRPYRRADPMR returned an amyloid nucleation score in data set [2] of 0.691 ± 0.54.

Consider ASREWASSVVLW, for which the amyloid nucleation score in data set [2] turned out to be 0.427 ± 0.29.

Take STDIWVWFYRNFLMTANRN: in data set [2], the amyloid nucleation score entry is “inactive”.

Consider RIFVWVGSVWFWGVS, for which the amyloid nucleation score in data set [2] stood at 3.55 ± 0.13. Same read-out and setting: for CVLSKEI the value was 0.387 ± 0.3; for NLSILTICMFLPVDFGI, 6.525 ± 0.059; for CCICKSRHLFDWKNDEWTSI, -0.45 ± 0.63. SWFRFCMYWFSDCRNILGS returned an amyloid nucleation score in data set [2] of 4.58 ± 0.051. The same measure, in the same setting: for SPRSAIFSLTTQVF the value was 3.34 ± 0.13; for FINCSHQCHSIGIRVLLNCR, 0.915 ± 0.19; for YWEDNWAPNIQDLWQRRRCG, 0.743 ± 0.81. As to RLDYNSSCQIFLFAGFMYLF, in data set [2], the amyloid nucleation score was 3.23 ± 0.067. Same read-out and setting: for CLFVTVGFCICCLFFLWFCL the value was 5 ± 0.1; for NVRSWYLDNLFLTFAVA, 0.164 ± 0.63; for IFHVIVWLFEDAFVQVQNYR, 4.29 ± 0.078. For NPALVFIHA, in data set [2], the amyloid nucleation score result is “inactive”.

LRGHRPFLVY had an amyloid nucleation score in data set [2] of -0.02 ± 1.1.

As for IHLRWPMKRLVYTYCFYFYS, in data set [2], the amyloid nucleation score was -0.788 ± 0.76. The same measure, in the same setting: for VVKYFCDHI the value was 4.5 ± 0.07.

Take SVNYFLRGHKPRVNVVPSVE: the amyloid nucleation score in data set [2] amounted to 5.119 ± 0.046. On the same count and under the same terms, for SMILVHKSNLQFLGKDDTQS the value was 6.539 ± 0.025; for AVKCVVEVTPWLDVKIKSFY, -0.735 ± 0.55. On the same count and under the same terms, for PGSAIRVVSMRLWGRRRSAG the value was 0.458 ± 0.45; for RNSSVGT, “inactive”.

Regarding HSFHTVSTARRLKQDPYMR, the amyloid nucleation score in data set [2] was -0.387 ± 0.64. In data set [2], TVAMSGASQYDEYVSESMMT came in with an amyloid nucleation score of 0.061 ± 0.27. On the same count and under the same terms, for RGINKTDIFVFELCVHDVCL the value was 2.58 ± 0.16; for STLHQSIKTGDIFFDSGTFV, -0.889 ± 0.49; for HSLLSYMFSFQLTNMNCDLG, -0.117 ± 0.56. Take RITPFWYQRIYRIMY: the amyloid nucleation score in data set [2] was -0.339 ± 0.22. On the same count and under the same terms, for RISNVWENTFTLSAGSWGVR the value was 1.38 ± 0.22.

In data set [2], TRDNST came in with an amyloid nucleation score of 0.32 ± 0.53. For MMIFLGLTSFKFLMSAVNTM, the amyloid nucleation score in data set [2] came to 0.628 ± 0.38.

LRSLGAGAIYMPALQCRSRS returned an amyloid nucleation score in data set [2] of 0.255 ± 0.5.

In turn, HIDVLMGCWMRIVTWSR gave an amyloid nucleation score in data set [2] of 2.17 ± 0.29.

LVITTMDDLKCDRAVVGPMW: the amyloid nucleation score in data set [2] is -0.174 ± 0.76.

For YYVTNSGSWLDACHGLYKTG, the amyloid nucleation score entry in data set [2] was “inactive”. Same read-out and setting: for IIPFRRSTVRLVRCLWISGL the value was 1.13 ± 0.31; for SLSDYFGEWISA, -0.422 ± 1.1; for RNILPLARDSVVFNDCYDSG, 0.545 ± 0.33. Still for that read-out and setting: for PVLYFLGLSMVDNTITRSTA the value was -0.763 ± 0.34. Regarding IIGAWKM, the amyloid nucleation score in data set [2] came to 0.992 ± 0.33. The substance CNSCSP registered an amyloid nucleation score in data set [2] of 0.811 ± 0.67. As to VEFLWGFWWYKPQRKSVGST, the amyloid nucleation score in data set [2] was -1.54 ± 0.75. On the same count and under the same terms, for VVSSGLHHRLLLCRIEGA the value was 0.526 ± 0.26; for ISGFRPSAYWSVLNWNSSL, -1.78 ± 1.1; for TYMSYFSSTWKILVGAHWRR, 1.85 ± 0.18.

GRTCVRRGQAE yielded an amyloid nucleation score in data set [2] of 0.909 ± 0.47.

Substance ARVNYLRTCKYASRNSFHRS registered an amyloid nucleation score in data set [2] of -0.913 ± 0.45.

As for HFGAFMHCVCTRLKMS, the amyloid nucleation score in data set [2] was -0.08 ± 0.61. On the same count and under the same terms, for FYWRFTFRLVCRFCYTRHLK the value was -0.522 ± 0.35; for LKNVCFCIWRISWNKISQKI, “inactive”.

The values are drawn from the supplement of paper PMC12042874.
